Laboratory results from patent publication US20120093810A1 (EVEC, published 2012).
No end group written: not given here. cellulose membrane = not defined here

Key:
[1] = target: T1, glycoprotein gB of human cytomegalovirus (HCMV) AD169 strain (human cytomegalovirus, AD169 strain, UniProt P06473 32-906); experiment: cell-based or functional assay
[2] = target: T2, synthetic gB peptide, Peptide 3 in Table 5 (human cytomegalovirus, AD169 strain, reading uncertain); experiment: peptide array (SPOTs), dot blot
T2 construct: also called peptide number 3
T2 peptide: SCVTINQTSVKV-{cellulose membrane}

[3] = target: T3, synthetic gB peptide, Peptide 8 in Table 5 (human cytomegalovirus, AD169 strain, reading uncertain); experiment: peptide array (SPOTs), dot blot
T3 construct: 12-mer of gB; also called peptide number 8
T3 peptide: SPGRCYSRPVVI-{cellulose membrane}

[4] = target: T4, synthetic gB peptide, Peptide 21 in Table 5 (human cytomegalovirus, AD169 strain, reading uncertain); experiment: peptide array (SPOTs), dot blot
T4 construct: 12-mer of gB; also called peptide number 21
T4 peptide: GNSAYEYVDYLF-{cellulose membrane}

[5] = target: T5, synthetic gB peptide, Peptide 22 in Table 5 (human cytomegalovirus, AD169 strain, reading uncertain); experiment: peptide array (SPOTs), dot blot
T5 construct: 12-mer of gB; also called peptide number 22
T5 peptide: YEYVDYLFKRMI-{cellulose membrane}

[6] = target: T6, synthetic gB peptide, Peptide 7 in Table 5 (human cytomegalovirus, AD169 strain, reading uncertain); experiment: peptide array (SPOTs), dot blot
T6 construct: 12-mer of gB; also called peptide number 7
T6 peptide: NVKESPGRCYSR-{cellulose membrane}

[7] = target: glycoprotein gB of HCMV laboratory strain Towne (human cytomegalovirus, Towne strain, UniProt P13201 23-907); experiment: cell-based or functional assay
Sequence of glycoprotein gB of HCMV laboratory strain Towne (P13201 23-907 limits assumed): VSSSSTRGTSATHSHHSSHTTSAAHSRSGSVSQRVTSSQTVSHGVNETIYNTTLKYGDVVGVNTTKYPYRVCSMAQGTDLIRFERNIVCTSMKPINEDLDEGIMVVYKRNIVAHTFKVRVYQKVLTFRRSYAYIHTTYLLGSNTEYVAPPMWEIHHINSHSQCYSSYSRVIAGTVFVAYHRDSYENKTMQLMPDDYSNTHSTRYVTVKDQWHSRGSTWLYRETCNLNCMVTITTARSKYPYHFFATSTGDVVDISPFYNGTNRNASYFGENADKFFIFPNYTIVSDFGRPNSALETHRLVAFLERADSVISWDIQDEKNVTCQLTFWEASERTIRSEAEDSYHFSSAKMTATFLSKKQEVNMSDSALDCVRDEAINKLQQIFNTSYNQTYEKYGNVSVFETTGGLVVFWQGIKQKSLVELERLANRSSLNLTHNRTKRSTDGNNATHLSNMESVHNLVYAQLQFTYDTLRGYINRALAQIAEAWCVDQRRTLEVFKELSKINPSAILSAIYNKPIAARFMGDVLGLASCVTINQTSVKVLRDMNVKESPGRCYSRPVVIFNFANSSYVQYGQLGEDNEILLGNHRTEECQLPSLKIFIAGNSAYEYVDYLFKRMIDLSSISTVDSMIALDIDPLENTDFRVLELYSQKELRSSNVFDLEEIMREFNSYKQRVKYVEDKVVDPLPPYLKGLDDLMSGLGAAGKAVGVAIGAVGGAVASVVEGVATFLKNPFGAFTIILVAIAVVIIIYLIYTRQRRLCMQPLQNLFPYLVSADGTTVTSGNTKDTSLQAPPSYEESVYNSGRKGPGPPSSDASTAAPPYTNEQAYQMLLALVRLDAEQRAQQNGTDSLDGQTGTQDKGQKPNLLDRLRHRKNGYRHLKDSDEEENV

[8] = target: glycoprotein gB of HCMV laboratory strain Davis (human cytomegalovirus, Davis strain); experiment: cell-based or functional assay
[9] = target: glycoprotein gB of HCMV laboratory strain Merlin (human cytomegalovirus, Merlin strain, UniProt F5HB53 25-907); experiment: cell-based or functional assay
Sequence of glycoprotein gB of HCMV laboratory strain Merlin (F5HB53 25-907 limits assumed): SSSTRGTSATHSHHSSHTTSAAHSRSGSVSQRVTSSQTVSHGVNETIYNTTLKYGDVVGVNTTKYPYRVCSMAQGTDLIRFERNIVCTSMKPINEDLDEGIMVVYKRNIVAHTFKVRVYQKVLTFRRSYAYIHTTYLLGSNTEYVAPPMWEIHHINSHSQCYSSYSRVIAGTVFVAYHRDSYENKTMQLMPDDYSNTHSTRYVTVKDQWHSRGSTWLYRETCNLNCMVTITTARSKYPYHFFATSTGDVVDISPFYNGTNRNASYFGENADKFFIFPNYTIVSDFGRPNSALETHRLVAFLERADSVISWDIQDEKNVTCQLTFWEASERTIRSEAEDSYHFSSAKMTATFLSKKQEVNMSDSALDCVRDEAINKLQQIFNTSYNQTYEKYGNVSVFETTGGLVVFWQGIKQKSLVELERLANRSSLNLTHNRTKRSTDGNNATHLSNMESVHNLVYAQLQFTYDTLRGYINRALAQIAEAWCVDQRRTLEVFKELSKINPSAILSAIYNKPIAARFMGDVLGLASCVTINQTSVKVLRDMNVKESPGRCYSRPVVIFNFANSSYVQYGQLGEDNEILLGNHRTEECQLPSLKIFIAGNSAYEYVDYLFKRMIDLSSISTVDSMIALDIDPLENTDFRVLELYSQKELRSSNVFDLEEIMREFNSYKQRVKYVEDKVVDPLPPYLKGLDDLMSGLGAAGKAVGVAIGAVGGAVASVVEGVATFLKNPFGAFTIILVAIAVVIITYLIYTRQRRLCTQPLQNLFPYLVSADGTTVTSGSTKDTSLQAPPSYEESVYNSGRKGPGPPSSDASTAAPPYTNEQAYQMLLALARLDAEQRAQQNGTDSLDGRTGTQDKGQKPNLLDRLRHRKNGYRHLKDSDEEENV

[10] = target: glycoprotein gB of clinically isolated HCMV strain MDU-1 (human cytomegalovirus, clinical isolate …, UniProt P08195); experiment: cell-based or functional assay
Sequence of glycoprotein gB of clinically isolated HCMV strain MDU-1 (P08195 102-630): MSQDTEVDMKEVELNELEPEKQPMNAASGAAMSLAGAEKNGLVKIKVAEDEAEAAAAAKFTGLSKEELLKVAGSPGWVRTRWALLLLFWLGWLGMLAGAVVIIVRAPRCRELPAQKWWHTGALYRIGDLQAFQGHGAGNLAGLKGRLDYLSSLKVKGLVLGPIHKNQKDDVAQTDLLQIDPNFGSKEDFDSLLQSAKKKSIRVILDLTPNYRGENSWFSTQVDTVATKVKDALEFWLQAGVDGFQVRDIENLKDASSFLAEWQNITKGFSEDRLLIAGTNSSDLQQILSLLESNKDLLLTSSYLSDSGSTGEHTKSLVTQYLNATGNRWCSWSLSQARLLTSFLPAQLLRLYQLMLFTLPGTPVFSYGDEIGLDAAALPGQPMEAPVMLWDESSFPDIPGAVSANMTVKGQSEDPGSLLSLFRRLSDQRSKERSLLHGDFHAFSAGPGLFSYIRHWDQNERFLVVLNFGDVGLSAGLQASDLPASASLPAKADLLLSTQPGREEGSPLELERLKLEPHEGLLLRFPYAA

[11] = target: T1, glycoprotein gB of human …; experiment: cell-based or functional assay; remark: listed apart in the source
[12] = target: glycoprotein gB of clinically isolated HCMV strain T-137 (human cytomegalovirus, clinical isolate …); experiment: cell-based or functional assay
[13] = target: T7, GST-fused HCMV-AD1 (AD1 region of HCMV glycoprotein gB) (human cytomegalovirus, AD169 strain, UniProt F5HB53 485-651); experiment: ELISA on solid-phased AD1
T7 construct: also called solid-phased AD1; AD1 antigen; not shown: glutathione S-transferase (GST) fusion partner
T7 sequence (F5HB53 485-651): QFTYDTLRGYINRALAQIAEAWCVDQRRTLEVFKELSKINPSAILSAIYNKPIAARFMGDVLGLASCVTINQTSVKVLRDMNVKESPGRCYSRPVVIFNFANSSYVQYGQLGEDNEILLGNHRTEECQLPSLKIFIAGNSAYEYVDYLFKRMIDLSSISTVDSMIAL

[14] = target: T1, glycoprotein gB of human …; experiment: cell-based or functional assay; remark: listed apart in the source

T1 sequence (P06473 32-906 limits assumed): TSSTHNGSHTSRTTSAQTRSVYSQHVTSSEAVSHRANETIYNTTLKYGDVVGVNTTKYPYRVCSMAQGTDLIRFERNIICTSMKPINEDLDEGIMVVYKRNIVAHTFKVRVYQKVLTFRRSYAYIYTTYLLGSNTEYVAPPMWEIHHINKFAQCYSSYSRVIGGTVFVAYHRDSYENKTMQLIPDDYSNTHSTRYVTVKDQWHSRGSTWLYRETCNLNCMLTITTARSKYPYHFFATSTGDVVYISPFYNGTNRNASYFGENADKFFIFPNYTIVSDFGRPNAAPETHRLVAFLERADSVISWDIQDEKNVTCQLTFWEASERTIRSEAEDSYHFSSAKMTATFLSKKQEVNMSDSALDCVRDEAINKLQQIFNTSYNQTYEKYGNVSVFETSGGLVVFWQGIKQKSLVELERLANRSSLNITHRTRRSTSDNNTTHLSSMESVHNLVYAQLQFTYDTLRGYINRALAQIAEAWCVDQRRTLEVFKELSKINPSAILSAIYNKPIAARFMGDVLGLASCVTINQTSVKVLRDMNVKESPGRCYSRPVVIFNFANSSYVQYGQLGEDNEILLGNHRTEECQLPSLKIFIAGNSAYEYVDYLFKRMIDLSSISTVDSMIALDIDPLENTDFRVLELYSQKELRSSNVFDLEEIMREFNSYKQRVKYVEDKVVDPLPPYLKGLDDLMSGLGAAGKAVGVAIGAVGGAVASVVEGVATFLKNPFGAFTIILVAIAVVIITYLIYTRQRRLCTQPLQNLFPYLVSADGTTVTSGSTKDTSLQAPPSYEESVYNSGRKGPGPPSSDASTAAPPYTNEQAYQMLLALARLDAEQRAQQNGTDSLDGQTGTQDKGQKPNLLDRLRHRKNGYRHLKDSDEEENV

B1: anti-AD1 antibody EV2038 (antibody, human IgG1, lambda, V domains shown)
VH: QVQLQQWGAGLLKPSETLSLTCAVYGGSFSGYYWGWIRQPPGKGLEWIGEINHSGSANSNPSLKSRVTMSVDTSKNQFSLKVSSVTAADTAVYFCARVTRDLEWIPGDYYMDVWGKGTTVTVSS
VL: QSVLTQPPSASGTPGQRVSISCSGSLSNIGTNYVYWYQQLPGTAPKLLIFKNNQRPSGVPDRFSGSKSGTSASLAISGLRSEDEADYYCAAWDDSLNGYVFGTGTKVTVLG
notes: complete human IgG1λ; also called EV2038 (original); anti-HCMV antibody (EV2038)
With B1 the “IC50 of neutralisation of HCMV AD169 infection of MRC-5 cells (IE1 immunostaining), with complement (Cp+)” value [1] was 0.58 µg/mL, the “IC50 of neutralisation of HCMV AD169 infection of MRC-5 cells (IE1 immunostaining), without complement (Cp-)” value [1] was 0.57 µg/mL and the binding result [2] was “binds”. B1: binds [3]; binds [4]; binds [5]. The binding result [6] was “binds”, the “IC50 of plaque formation, HCMV Towne, fibroblast cell” value [7] was 0.025 µg/mL and the “IC50 of plaque formation, HCMV Towne, fibroblast cell (mol concentration)” value [7] was 0.17 nM. The “IC50 of plaque formation, HCMV Davis, fibroblast cell” value [8] was 0.037 µg/mL, the “IC50 of plaque formation, HCMV Davis, fibroblast cell (mol concentration)” value [8] was 0.25 nM and the “IC50 of plaque formation, HCMV Merlin, fibroblast cell” value [9] was 0.012 µg/mL. For the same binder, the “IC50 of plaque formation, HCMV Merlin, fibroblast cell (mol concentration)” value [9] was 0.08 nM, the “IC50 of plaque formation, clinical isolate MDU-1, epithelial cell” value [10] was 0.04 µg/mL and the “IC50 of plaque formation, clinical isolate MDU-1, fibroblast cell” value [10] was 0.044 µg/mL. The “IC50 of plaque formation, clinical isolate MDU-1, fibroblast cell (mol concentration)” value [10] was 0.29 nM, the “IC50 of plaque formation, HCMV AD169, fibroblast cell” value [11] was 0.027 µg/mL and the “IC50 of plaque formation, HCMV AD169, fibroblast cell (mol concentration)” value [11] was 0.18 nM. The “IC50 of plaque formation, clinical isolate T-137, fibroblast cell” value [12] was 0.07 µg/mL and the “IC50 of plaque formation, clinical isolate T-137, fibroblast cell (mol concentration)” value [12] was 0.47 nM.

B2: EV2038 CDR-H3 insertion variant G126_D127insE (antibody, V domains shown)
VH: QVQLQQWGAGLLKPSETLSLTCAVYGGSFSGYYWGWIRQPPGKGLEWIGEINHSGSANSNPSLKSRVTMSVDTSKNQFSLKVSSVTAADTAVYFCARVTRDLEWIPGEDYYMDVWGKGTTVTVSS
VL: QSVLTQPPSASGTPGQRVSISCSGSLSNIGTNYVYWYQQLPGTAPKLLIFKNNQRPSGVPDRFSGSKSGTSASLAISGLRSEDEADYYCAAWDDSLNGYVFGTGTKVTVLG
notes: original EV2038 L-chain
B2: no binding [13].

B3: EV2038 CDR-H3 deletion variant E122del (antibody, V domains shown)
VH: QVQLQQWGAGLLKPSETLSLTCAVYGGSFSGYYWGWIRQPPGKGLEWIGEINHSGSANSNPSLKSRVTMSVDTSKNQFSLKVSSVTAADTAVYFCARVTRDLWIPGDYYMDVWGKGTTVTVSS
VL: QSVLTQPPSASGTPGQRVSISCSGSLSNIGTNYVYWYQQLPGTAPKLLIFKNNQRPSGVPDRFSGSKSGTSASLAISGLRSEDEADYYCAAWDDSLNGYVFGTGTKVTVLG
notes: original EV2038 L-chain
B3: no binding [13].

B4: EV2038 CDR-H3 variant V132K (antibody, V domains shown)
VH: QVQLQQWGAGLLKPSETLSLTCAVYGGSFSGYYWGWIRQPPGKGLEWIGEINHSGSANSNPSLKSRVTMSVDTSKNQFSLKVSSVTAADTAVYFCARVTRDLEWIPGDYYMDKWGKGTTVTVSS
VL: QSVLTQPPSASGTPGQRVSISCSGSLSNIGTNYVYWYQQLPGTAPKLLIFKNNQRPSGVPDRFSGSKSGTSASLAISGLRSEDEADYYCAAWDDSLNGYVFGTGTKVTVLG
In the case of B4, the “50% inhibition concentration (IC50) of HCMV infection (immunostaining method of Abai et al.)” value [14] is reported as 1.2 µg/mL.

B5: EV2038 CDR-H3 variant I124D (antibody, V domains shown)
VH: QVQLQQWGAGLLKPSETLSLTCAVYGGSFSGYYWGWIRQPPGKGLEWIGEINHSGSANSNPSLKSRVTMSVDTSKNQFSLKVSSVTAADTAVYFCARVTRDLEWDPGDYYMDVWGKGTTVTVSS
VL: QSVLTQPPSASGTPGQRVSISCSGSLSNIGTNYVYWYQQLPGTAPKLLIFKNNQRPSGVPDRFSGSKSGTSASLAISGLRSEDEADYYCAAWDDSLNGYVFGTGTKVTVLG
notes: original EV2038 L-chain
B5: no binding [13].

B6: EV2038 CDR-H3 variant I124V (antibody, V domains shown)
VH: QVQLQQWGAGLLKPSETLSLTCAVYGGSFSGYYWGWIRQPPGKGLEWIGEINHSGSANSNPSLKSRVTMSVDTSKNQFSLKVSSVTAADTAVYFCARVTRDLEWVPGDYYMDVWGKGTTVTVSS
VL: QSVLTQPPSASGTPGQRVSISCSGSLSNIGTNYVYWYQQLPGTAPKLLIFKNNQRPSGVPDRFSGSKSGTSASLAISGLRSEDEADYYCAAWDDSLNGYVFGTGTKVTVLG
B6 was tested, and the “50% inhibition concentration (IC50) of HCMV infection (immunostaining method of Abai et al.)” value [14] was 0.45 µg/mL.
